Consider five variants from IntAct's records for PubMed 22466964.

B1: UBX domain-containing protein 7 (Homo sapiens), O94888 (parent)
chain: MAAHGGSAASSALKGLIQQFTTITGASESVGKHMLEACNNNLEMAVTMFLDGGGIAEEPSTSSASVSTVRPHTEEEVRAPIPQKQEILVEPEPLFGAPKRRRPARSIFDGFRDFQTETIRQEQELRNGGAIDKKLTTLADLFRPPIDLMHKGSFETAKECGQMQNKWLMINIQNVQDFACQCLNRDVWSNEAVKNIIREHFIFWQVYHDSEEGQRYIQFYKLGDFPYVSILDPRTGQKLVEWHQLDVSSFLDQVTGFLGEHGQLDGLSSSPPKKCARSESLIDASEDSQLEAAIRASLQETHFDSTQTKQDSRSDEESESELFSGSEEFISVCGSDEEEEVENLAKSRKSPHKDLGHRKEENRRPLTEPPVRTDPGTATNHQGLPAVDSEILEMPPEKADGVVEGIDVNGPKAQLMLRYPDGKREQITLPEQAKLLALVKHVQSKGYPNERFELLTNFPRRKLSHLDYDITLQEAGLCPQETVFVQERN
B2: UBX domain-containing protein 5 (Saccharomyces cerevisiae), Q06682 (parent)
chain: MSEGKVDEFMAITGADDAAIATQFIEMADGNLNTAISLFFENGGAALLSSNNTPTPSNSTPMAPTSVDSDADAQLAERLQREAYQQQQPDQDYVRPPDEARHEVLTETSGFPISYGGIGGRFEPLHRVNDMFDEGRPESIFNQRLDDTNTNTYINDNSSDSLDSEEENDDDEYEYVEEPVIELDEDGNIKEYTKLVRKPKTISKEQKLALLFRPPFSIMSKLDLDAAKQKARAKQKWIMINIQDSGIFQCQALNRDLWSSRPVKTIIKENFVFLQYQYESRNAQPYLQFYHLNNKDDLPHIAILDPITGERVKQWNRVVPIPEQFISEINEFLASFSLDPKVPNPTVNEPLPKVDPTTLTEEQQMELAIKESLNNNSSKSNQEEVPSTGEEQKRVQEPDPFSTIEARVHPEPPNKPGITTRIQIRTGDGSRLVRRFNALEDTVRTIYEVIKTEMDGFADSRFTLNDHQREDLIDKLNMTIADAGLKNSSLLLEKLDPEIE
partner: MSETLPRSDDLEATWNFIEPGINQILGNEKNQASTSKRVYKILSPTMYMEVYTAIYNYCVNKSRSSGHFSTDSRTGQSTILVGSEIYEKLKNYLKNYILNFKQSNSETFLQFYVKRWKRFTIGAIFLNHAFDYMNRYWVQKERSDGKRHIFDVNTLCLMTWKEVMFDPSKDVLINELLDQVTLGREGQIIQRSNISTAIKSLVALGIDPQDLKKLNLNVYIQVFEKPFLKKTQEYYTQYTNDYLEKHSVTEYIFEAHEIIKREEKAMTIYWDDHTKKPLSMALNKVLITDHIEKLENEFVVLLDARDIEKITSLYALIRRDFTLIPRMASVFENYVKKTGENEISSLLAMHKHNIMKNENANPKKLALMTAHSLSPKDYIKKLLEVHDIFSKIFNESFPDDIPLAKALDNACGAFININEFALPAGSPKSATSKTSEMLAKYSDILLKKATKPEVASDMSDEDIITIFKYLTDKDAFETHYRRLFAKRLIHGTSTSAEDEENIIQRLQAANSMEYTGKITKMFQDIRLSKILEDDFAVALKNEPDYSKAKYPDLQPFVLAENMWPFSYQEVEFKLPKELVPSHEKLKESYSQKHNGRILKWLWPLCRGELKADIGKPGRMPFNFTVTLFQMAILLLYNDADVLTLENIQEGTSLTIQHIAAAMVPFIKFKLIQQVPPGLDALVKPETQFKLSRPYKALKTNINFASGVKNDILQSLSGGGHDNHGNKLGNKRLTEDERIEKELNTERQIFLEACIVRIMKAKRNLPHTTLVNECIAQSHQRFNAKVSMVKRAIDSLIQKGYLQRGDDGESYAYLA
B3: Cullin-2 (Homo sapiens), Q13617 (parent)
chain: MSLKPRVVDFDETWNKLLTTIKAVVMLEYVERATWNDRFSDIYALCVAYPEPLGERLYTETKIFLENHVRHLHKRVLESEEQVLVMYHRYWEEYSKGADYMDCLYRYLNTQFIKKNKLTEADLQYGYGGVDMNEPLMEIGELALDMWRKLMVEPLQAILIRMLLREIKNDRGGEDPNQKVIHGVINSFVHVEQYKKKFPLKFYQEIFESPFLTETGEYYKQEASNLLQESNCSQYMEKVLGRLKDEEIRCRKYLHPSSYTKVIHECQQRMVADHLQFLHAECHNIIRQEKKNDMANMYVLLRAVSTGLPHMIQELQNHIHDEGLRATSNLTQENMPTLFVESVLEVHGKFVQLINTVLNGDQHFMSALDKALTSVVNYREPKSVCKAPELLAKYCDNLLKKSAKGMTENEVEDRLTSFITVFKYIDDKDVFQKFYARMLAKRLIHGLSMSMDSEEAMINKLKQACGYEFTSKLHRMYTDMSVSADLNNKFNNFIKNQDTVIDLGISFQIYVLQAGAWPLTQAPSSTFAIPQELEKSVQMFELFYSQHFSGRKLTWLHYLCTGEVKMNYLGKPYVAMVTTYQMAVLLAFNNSETVSYKELQDSTQMNEKELTKTIKSLLDVKMINHDSEKEDIDAESSFSLNMNFSSKRTKFKITTSMQKDTPQEMEQTRSAVDEDRKMYLQAAIVRIMKARKVLRHNALIQEVISQSRARFNPSISMIKKCIEVLIDKQYIERSQASADEYSYVA
partner: B1 chain

Variants of B1 are the subject of one assay. Conditions: with cul2_human CUL2, Q13617.
Consider MAAHGGSAASSALKGLIQQFTTITGASESVGKHMLEACNNNLEMAVTMFLDGGGIAEEPSTSSASVSTVRPHTEEEVRAPIPQKQEILVEPEPLFGAPKRRRPARSIFDGFRDFQTETIRQEQELRNGGAIDKKLTTLADLFRPPIDLMHKGSFETAKECGQMQNKWLMINIQNVQDFACQCLNRDVWSNEAVKNIIREHFIFWQVYHDSEEGQRYIQFYKLGDFPYVSILDPRTGQKLVEWHQLDVSSFLDQVTGFLGEHGQLDGLSSSPPKKCARSESLIDASEDSQLEAQIRASLQETHFDSTQTKQDSRSDEESESELFSGSEEFISVCGSDEEEEVENLAKSRKSPHKDLGHRKEENRRPLTEPPVRTDPGTATNHQGLPAVDSEILEMPPEKADGVVEGIDVNGPKAQLMLRYPDGKREQITLPEQAKLLALVKHVQSKGYPNERFELLTNFPRRKLSHLDYDITLQEAGLCPQETVFVQERN [A293Q], for which the “effect of a mutation on the interaction” value is recorded as “disrupting interaction strength”.
As to MAAHGGSAASSALKGLIQQFTTITGASESVGKHMLEACNNNLEMAVTMFLDGGGIAEEPSTSSASVSTVRPHTEEEVRAPIPQKQEILVEPEPLFGAPKRRRPARSIFDGFRDFQTETIRQEQELRNGGAIDKKLTTLADLFRPPIDLMHKGSFETAKECGQMQNKWLMINIQNVQDFACQCLNRDVWSNEAVKNIIREHFIFWQVYHDSEEGQRYIQFYKLGDFPYVSILDPRTGQKLVEWHQLDVSSFLDQVTGFLGEHGQLDGLSSSPPKKCARSESLIDASRDSQEEAQIRASLQETHFDSTQTKQDSRSDEESESELFSGSEEFISVCGSDEEEEVENLAKSRKSPHKDLGHRKEENRRPLTEPPVRTDPGTATNHQGLPAVDSEILEMPPEKADGVVEGIDVNGPKAQLMLRYPDGKREQITLPEQAKLLALVKHVQSKGYPNERFELLTNFPRRKLSHLDYDITLQEAGLCPQETVFVQERN [E286R;L290E;A293Q], the “effect of a mutation on the interaction” value was “disrupting interaction strength”.

A further assay covers variants of B2. The settings on record: with cdc53_yeast CDC53, Q12018.
Take MSEGKVDEFMAITGADDAAIATQFIEMADGNLNTAISLFFENGGAALLSSNNTPTPSNSTPMAPTSVDSDADAQLAERLQREAYQQQQPDQDYVRPPDEARHEVLTETSGFPISYGGIGGRFEPLHRVNDMFDEGRPESIFNQRLDDTNTNTYINDNSSDSLDSEEENDDDEYEYVEEPVIELDEDGNIKEYTKLVRKPKTISKEQKLALLFRPPFSIMSKLDLDAAKQKARAKQKWIMINIQDSGIFQCQALNRDLWSSRPVKTIIKENFVFLQYQYESRNAQPYLQFYHLNNKDDLPHIAILDPITGERVKQWNRVVPIPEQFISEINEFLASFSLDPKVPNPTVNEPLPKVDPTTLTEEQQMELQIKESLNNNSSKSNQEEVPSTGEEQKRVQEPDPFSTIEARVHPEPPNKPGITTRIQIRTGDGSRLVRRFNALEDTVRTIYEVIKTEMDGFADSRFTLNDHQREDLIDKLNMTIADAGLKNSSLLLEKLDPEIE [A368Q]: the “effect of a mutation on the interaction” value is “disrupting interaction strength”.
For the variant MSEGKVDEFMAITGADDAAIATQFIEMADGNLNTAISLFFENGGAALLSSNNTPTPSNSTPMAPTSVDSDADAQLAERLQREAYQQQQPDQDYVRPPDEARHEVLTETSGFPISYGGIGGRFEPLHRVNDMFDEGRPESIFNQRLDDTNTNTYINDNSSDSLDSEEENDDDEYEYVEEPVIELDEDGNIKEYTKLVRKPKTISKEQKLALLFRPPFSIMSKLDLDAAKQKARAKQKWIMINIQDSGIFQCQALNRDLWSSRPVKTIIKENFVFLQYQYESRNAQPYLQFYHLNNKDDLPHIAILDPITGERVKQWNRVVPIPEQFISEINEFLASFSLDPKVPNPTVNEPLPKVDPTTLTREQQEELQIKESLNNNSSKSNQEEVPSTGEEQKRVQEPDPFSTIEARVHPEPPNKPGITTRIQIRTGDGSRLVRRFNALEDTVRTIYEVIKTEMDGFADSRFTLNDHQREDLIDKLNMTIADAGLKNSSLLLEKLDPEIE [E361R;M365E;A368Q], the “effect of a mutation on the interaction” value is “disrupting interaction strength”.

Another assay covers variants of B3. Conditions: with ubxn7_human UBXN7, O94888.
On to K689R, for which the “effect of a mutation on the interaction” value was “disrupting interaction strength”.
